The RNAGym collection of RNA variant scans (doi:10.1021/acssynbio.7b00057)

B1: Pistol ribozyme (parent)
chain: GGGUCGUUGUUCCAUAAUCGCGUGGAUAUGGCACGCAAGUUUCUACCGGGCACCGUAAAUGUCCGACUGGAGCCGUUCGGGCGGCUAUAAACAGACCUCAGGCCCGAAGCGUGGCGGCACCUGCCGCCGGUGGUAAAAAAGAUCGGAAGAGCACACGUCU

Variants of: B1
Assay: aptazyme ON/OFF ratio, guanine; higher = stronger switching; co-transcriptional cleavage with and without guanine

| Variant | aptazyme ON/OFF ratio |
| --- | --- |
| U7G U8C U11C C12G C13G | 1.11 |
| U7G U8C U11C C12G C13U | 1.46 |
| U7G U8C U11C C12G C13A | 1.32 |
| U7G U8C U10G U11C C12U C13U | 1.47 |
| U7G U8C U10G U11C C12U C13A | 1.4 |
| U7G U8C U10G U11C C12U C13G | 1.23 |
| U7G U8G G9A U10A U11G C12G C13G | 1.15 |
| U7G U8G G9A U10A U11G C12G C13U | 1.06 |
| U7G U8G G9A U10A U11G C12G C13A | 1.14 |
| U7G U8G G9A U10A C12U | 1.52 |
| U7G U8G G9A U10A C12A | 1.46 |
| U7G U8G G9A U10A C12G | 1.5 |
| U7G U8G G9A U10G C13A | 1.39 |
| U7G U8G G9A U10G C13U | 1.27 |
| U7G U8G G9A U10G C13G | 1.11 |
| U7G U8G G9A U10G U11G C12A C13G | 1.15 |
| U7G U8G G9A U10G U11G C12A C13U | 1.17 |
| U7G U8G G9A U10G U11G C12A C13A | 1.1 |
| U7G U8G G9A U10C U11G C12A C13G | 1.14 |
| U7G U8G G9A U10C U11G C12A C13U | 1.19 |
| U7G U8G G9A U10C U11G C12A C13A | 1.11 |
| U7G U8G G9A U10G U11C C12A C13A | 1.17 |
| U7G U8G G9A U10G U11C C12A C13G | 1.15 |
| U7G U8G G9A U10G U11C C12A C13U | 1.27 |

| Variant | aptazyme ON/OFF ratio |
| --- | --- |
| U7G U8C U11C C12U C13A | 1.34 |
| U7G U8C U11C C12U C13G | 1.3 |
| U7G U8C U11C C12U C13U | 1.45 |
| U7G U8C U10G U11G C12U C13G | 1.29 |
| U7G U8C U10G U11G C12U C13A | 1.26 |
| U7G U8C U10G U11G C12U C13U | 1.34 |
| U7G U8C U10G C13G | 1.22 |
| U7G U8C U10G C13U | 1.24 |
| U7G U8C U10G C13A | 1.24 |
| U7G U8C U10G U11A C12G C13A | 1.09 |
| U7G U8C U10G U11A C12G C13U | 1.23 |
| U7G U8C U10G U11A C12G C13G | 1.21 |
| U7G U8C U10G U11C C12U | 1.34 |
| U7G U8C U10G U11C C12G | 2.08 |
| U7G U8C U10G U11C C12A | 1.57 |
| U7G U8C U10C U11G C12U | 1.3 |
| U7G U8G G9A U10G C12G C13G | 1.16 |
| U7G U8G G9A U10G C12G C13U | 1.55 |
| U7G U8G G9A U10G C12G C13A | 1.11 |
| U7G U8C U10G C12U C13A | 1.34 |
| U7G U8C U10G C12U C13U | 1.36 |
| U7G U8C U10G C12U C13G | 1.22 |
| U7G U8C U11C C12A C13U | 1.46 |
| U7G U8C U11C C12A C13A | 1.37 |

| Variant | aptazyme ON/OFF ratio |
| --- | --- |
| U7G U8C U11C C12A C13G | 1.26 |
| U7G U8C U10G C12A C13U | 1.2 |
| U7G U8C U10G C12A C13A | 1.12 |
| U7G U8C U10G C12A C13G | 1.12 |
| U7G U8C U11A C12G C13U | 1.12 |
| U7G U8C U11A C12G C13A | 1.09 |
| U7G U8C U11A C12G C13G | 1.07 |
| U7G U8C U10G U11G C12A C13G | 1.1 |
| U7G U8C U10G U11G C12A C13U | 1.29 |
| U7G U8C U10G U11G C12A C13A | 1.09 |
| U7G U8G G9A U10G U11A C13U | 1.12 |
| U7G U8G G9A U10G U11A C13A | 1.11 |
| U7G U8G G9A U10G U11A C13G | 1.11 |
| U7G U8C U10G U11G C12G C13U | 1.4 |
| U7G U8C U10G U11G C12G C13A | 1.18 |
| U7G U8C U10G U11G C12G C13G | 1.08 |
| U7G U8C U11G C12A | 1.14 |
| U7G U8C U11G C12G | 1.22 |
| U7G U8C U11G C12U | 1.28 |
| U7G U8G G9A U10G U11A C12G C13U | 1.26 |
| U7G U8G G9A U10G U11A C12G C13G | 1.18 |
| U7G U8G G9A U10G U11A C12G C13A | 1.13 |
| U7G U8C U11C | 1.53 |
| U7G U8C U11G | 1.01 |

| Variant | aptazyme ON/OFF ratio |
| --- | --- |
| U7G U8C U11A | 1.39 |
| U7G U8G G9A U10C U11A C12G C13A | 1.04 |
| U7G U8G G9A U10C U11A C12G C13U | 1.17 |
| U7G U8G G9A U10C U11A C12G C13G | 1.18 |
| U7G U8C U11A C12A C13A | 1.23 |
| U7G U8C U11A C12A C13G | 1.1 |
| U7G U8C U11A C12A C13U | 1.25 |
| U7G U8G G9A U10A U11G C12U C13G | 1.12 |
| U7G U8G G9A U10A U11G C12U C13U | 1.35 |
| U7G U8G G9A U10A U11G C12U C13A | 1.13 |
| U7G U8G G9A U10G U11C C12U | 1.27 |
| U7G U8G G9A U10G U11C C12A | 1.4 |
| U7G U8G G9A U10G U11C C12G | 1.26 |
| U7G U8G G9A U10C U11A | 2.49 |
| U7G U8G G9A U10C U11C | 1.08 |
| U7G U8G G9A U10C U11G | 1.89 |
| U7G U8G G9A U10A C12A C13A | 1.2 |
| U7G U8G G9A U10A C12A C13G | 1.04 |
| U7G U8G G9A U10A C12A C13U | 1.06 |
| U7G U8G | 1.29 |
| U7G U8G G9A U10C C12A C13U | 1.32 |
| U7G U8G G9A U10C C12A C13A | 1.13 |
| U7G U8G G9A U10C C12A C13G | 1.14 |
| U7G U8G G9A U10C U11C C13U | 1.01 |

| Variant | aptazyme ON/OFF ratio |
| --- | --- |
| U7G U8G G9A U10C U11C C13G | 0.991 |
| U7G U8G G9A U10C U11C C13A | 0.99 |
| U7G U8G G9A U10G C12U | 1.29 |
| U7G U8G G9A U10G C12G | 1.28 |
| U7G U8G G9A U10G C12A | 1.27 |
| U7G U8G G9A U10C U11A C13A | 1.2 |
| U7G U8G G9A U10C U11A C13G | 1.1 |
| U7G U8G G9A U10C U11A C13U | 1.2 |
| U7G U8G G9A U10C U11G C13G | 1.28 |
| U7G U8G G9A U10C U11G C13U | 1.19 |
| U7G U8G G9A U10C U11G C13A | 1.27 |
| U7G U8C U10C U11G C13A | 1.23 |
| U7G U8C U10C U11G C13G | 1.26 |
| U7G U8C U10C U11G C13U | 1.38 |
| U7G U8C U10G U11G C13A | 1.22 |
| U7G U8C U10G U11G C13G | 1.26 |
| U7G U8C U10G U11G C13U | 1.3 |
| U7G U8G G9A U10C U11G C12U C13U | 1.38 |
| U7G U8G G9A U10C U11G C12U C13G | 1.16 |
| U7G U8G G9A U10C U11G C12U C13A | 1.27 |
| U7G U8G G9A U10A U11A C12G C13U | 1.33 |
| U7G U8G G9A U10A U11A C12G C13G | 1.1 |
| U7G U8G G9A U10A U11A C12G C13A | 1.15 |
| U7G U8G G9A U10A U11C C12A | 1.21 |

| Variant | aptazyme ON/OFF ratio |
| --- | --- |
| U7G U8G G9A U10A U11C C12U | 1.1 |
| U7G U8G G9A U10A U11C C12G | 1.23 |
| U7G U8C U10C U11G C12U C13A | 1.29 |
| U7G U8C U10C U11G C12U C13U | 1.31 |
| U7G U8C U10C U11G C12U C13G | 1.16 |
| U7G U8G G9A U10G U11A C12A | 1.07 |
| U7G U8G G9A U10G U11A C12G | 1.15 |
| U7G U8G G9A U10G U11A C12U | 1.13 |
| U7G U8G C12A C13G | 1.22 |
| U7G U8G C12A C13A | 1.31 |
| U7G U8G C12A C13U | 1.57 |
| U7G U8G G9A U10C U11A C12A C13A | 1.2 |
| U7G U8G G9A U10C U11A C12A C13U | 1.25 |
| U7G U8G G9A U10C U11A C12A C13G | 1.15 |
| U7G U8C U11G C13G | 1.2 |
| U7G U8C U11G C13A | 1.29 |
| U7G U8C U11G C13U | 1.17 |
| U7G U8G C12U C13G | 1.39 |
| U7G U8G C12U C13A | 1.31 |
| U7G U8G C12U C13U | 1.5 |
| U7G U8C U11A C12U C13U | 1.21 |
| U7G U8C U11A C12U C13G | 1.14 |
| U7G U8C U11A C12U C13A | 1.2 |
| U7G U8G G9A U10A C12U C13A | 1.22 |

| Variant | aptazyme ON/OFF ratio |
| --- | --- |
| U7G U8G G9A U10A C12U C13U | 1.35 |
| U7G U8G G9A U10A C12U C13G | 1.15 |
| U7G U8C U10G U11C C13U | 1.4 |
| U7G U8C U10G U11C C13G | 1.19 |
| U7G U8C U10G U11C C13A | 1.33 |
| U7G U8G G9A U10A U11A C12A C13G | 1.07 |
| U7G U8G G9A U10A U11A C12A C13A | 1.11 |
| U7G U8G G9A U10A U11A C12A C13U | 1.38 |
| U7G U8G G9A U10A C12G C13U | 1.22 |
| U7G U8G G9A U10A C12G C13G | 1.18 |
| U7G U8G G9A U10A C12G C13A | 1.1 |
| U7G U8C U11G C12G C13A | 1.11 |
| U7G U8C U11G C12G C13G | 1.11 |
| U7G U8C U11G C12G C13U | 1.12 |
| U7G U8G C12G C13A | 1.4 |
| U7G U8G C12G C13U | 1.37 |
| U7G U8G C12G C13G | 1.36 |
| U7G U8G G9A U10C U11G C12A | 1.15 |
| U7G U8G G9A U10C U11G C12G | 1.53 |
| U7G U8G G9A U10C U11G C12U | 1.34 |
| U7G U8C U11C C13G | 1.07 |
| U7G U8C U11C C13U | 1.32 |
| U7G U8C U11C C13A | 1.3 |
